Source: PMC5699509
Read-outs that look alike come from different tables or passages of the source.

Experiments:
Assay in all cases: fluorescence quenching
RAD51 F86L [1] = molecular target: T1, RAD51 F86L (Homo sapiens, UniProt Q06609 1-339, F86L)
RAD51 WT [2] = molecular target: T2, RAD51 WT (Homo sapiens, UniProt Q06609 1-339)
RAD51 E258A [3] = molecular target: T3, RAD51 E258A (Homo sapiens, UniProt Q06609 1-339, E258A)
RAD51 WT [4] = molecular target: T2, RAD51 WT; remark: listed apart in the source
RAD51 F86L [5] = molecular target: T1, RAD51 F86L; remark: listed apart in the source
RAD51 E258A [6] = molecular target: T3, RAD51 E258A; remark: listed apart in the source

T2 sequence (Q06609 whole entry): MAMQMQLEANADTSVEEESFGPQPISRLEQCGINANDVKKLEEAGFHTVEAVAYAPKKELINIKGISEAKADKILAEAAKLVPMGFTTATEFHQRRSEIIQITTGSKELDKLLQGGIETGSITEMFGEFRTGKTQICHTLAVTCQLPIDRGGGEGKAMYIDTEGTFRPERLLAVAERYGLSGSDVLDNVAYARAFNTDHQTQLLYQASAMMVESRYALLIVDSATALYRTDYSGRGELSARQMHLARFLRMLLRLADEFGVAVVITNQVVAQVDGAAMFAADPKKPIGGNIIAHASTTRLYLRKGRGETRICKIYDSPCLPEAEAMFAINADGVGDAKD
T1 sequence (Q06609 whole entry F86L): as the sequence (Q06609 whole entry) above, with F86L counted along it
T3 sequence (Q06609 whole entry E258A): as the sequence (Q06609 whole entry) above, with E258A counted along it

Binder | Kd (RAD51 F86L [1]) [nM] | Kd (RAD51 WT [2]) [nM] | Kd (RAD51 E258A [3]) [nM] | Kd (RAD51 WT [4]) [nM] | Kd (RAD51 F86L [5]) [nM] | Kd (RAD51 E258A [6]) [nM]
AAAAAAAAAAAAAAAAAAAAAAAAA (ssDNA) [oligo 9 ssDNA (AF546 poly-dA)] | 4900 ± 400 | 600 ± 100 | 3100 ± 300 | 1900 ± 200 |  | 
oligo 9/10 dsDNA (AF546) (dsDNA) DNA 1: AAAAAAAAAAAAAAAAAAAAAAAAA DNA 2: TTTTTTTTTTTTTTTTTTTTTTTTT | 1800 ± 200 | 700 ± 100 | 1300 ± 100 | 800 ± 100 | 1700 ± 100 | 2100 ± 100
